Assay [1] addresses T1, MAGE-A3 peptide on HLA-DPB1*04:01 (human).
T1 peptide: KKLLTQHFVQENYLEY
Put plainly: multimer staining.

Assay [2] deals with T2, MAGE-B10 peptide on HLA-DPB1*04:01 (human).
T2 peptide: KDLVKENYLEY
Nature of the assay: cytokine release.

Assay [3] has as its target T3, MAGE-A3 peptide on HLA-DPB1*04:01 (human).
T3 peptide: LLTQHFVQENYLEY
Put plainly: cytokine release.

Assay [4] concerns the target T4, MAGE-A3 peptide on HLA-DPB1*04:01 (human).
T4 peptide: KKLLTQHFVQEN
Nature of the assay: cytokine release.

Assay [5] has as its target T5, MAGE-A12 peptide on HLA-DPB1*04:01 (human).
T5 peptide: KKLLTQDLVQENYLEY
Nature of the assay: cytokine release.

Assay [6] deals with T6, MAGE-A2/A12 peptide on HLA-DPB1*04:01 (human).
T6 peptide: QDLVQENYLEY
Put plainly: cytokine release.

Assay [7] addresses T7, MAGE-B16 peptide on HLA-DPB1*04:01 (human).
T7 peptide: KDFVKEKYLEY
Nature of the assay: cytokine release.

For assay [8], the target named is T8, MAGE-A6 peptide on HLA-DPB1*04:01 (human).
T8 peptide: QYFVQENYLEY
Put plainly: cytokine release.

The target of assay [9] is T9, MAGE-G1 peptide on HLA-DPB1*04:01 (human).
T9 peptide: KKLITEDFVRQRYLEY
Nature of the assay: cytokine release.

In assay [10] the target is T10, MAGE-A8 peptide on HLA-DPB1*04:01 (human).
T10 peptide: QEWVQENYLEY
Nature of the assay: cytokine release.

Assay [11] has as its target T11, MAGE-A3 peptide on HLA-DPB1*04:02 (human).
T11 peptide: QHFVQENYLEY
Put plainly: cytokine release.

Assay [12] addresses T12, MAGE-C1 peptide on HLA-DPB1*04:01 (human).
T12 peptide: KVWVQEHYLEY
Nature of the assay: cytokine release.

Assay [13] concerns the target T13, MAGE-A1 peptide on HLA-DPB1*04:01 (human).
T13 peptide: KKLLTQDLVQEKYLEY
Nature of the assay: cytokine release.

For assay [14], the target named is T14, MAGE-A4/A9 peptide on HLA-DPB1*04:01 (human).
T14 peptide: QDWVQENYLEY
Put plainly: cytokine release.

The target in assay [15] is T15, MAGE-A3 peptide on HLA-DPB1*04:01 (human).
T15 peptide: LTQHFVQENYLEY
Put plainly: cytokine release.

The target in assay [16] is T16, MAGE-A3 peptide on HLA-DPB1*04:01 (human).
T16 peptide: TQHFVQENYLEY
Nature of the assay: cytokine release.

The target of assay [17] is T17, MAGE-L2 peptide on HLA-DPB1*04:01 (human).
T17 peptide: KKLITEVFVRQKYLEY
Nature of the assay: cytokine release.

For assay [18], the target named is T18, MAGE-A3 peptide on HLA-DPB1*04:01 (human).
T18 peptide: KKLLTQHFVQE
Put plainly: cytokine release.

Assay [19] addresses T19, Necdin peptide on HLA-DPB1*04:01 (human).
T19 peptide: EEFVQMNYLKY
Nature of the assay: cytokine release.

Assay [20] has as its target T20, MAGE-B2 peptide on HLA-DPB1*04:01 (human).
T20 peptide: KDLVQEKYLEY
Nature of the assay: cytokine release.

Assay [21] addresses T21, MAGE-A3 peptide on HLA-DPB1*04:01 (human).
T21 peptide: QHFVQENYLEY
Nature of the assay: cytokine release.

Assay [22] concerns the target T1, MAGE-A3 peptide on HLA-DPB1*04:01. Put plainly: cytokine release.

B1: 6F9 TCR (TCR, V domains shown)
Valpha: AQTVTQSQPEMSVQEAETVTLSCTYDTSESDYYLFWYKQPPSRQMILVIRQEAYKQQNATENRFSVNFQKAAKSFSLKISDSQLGDAAMYFCALRSSGTYKYIFGTGTRLKVLA
Vbeta: GAGVSQSPSNKVTEKGKDVELRCDPISGHTALYWYRQSLGQGLEFLIYFQGNSAPDKSGLPSDRFSAERTGGSVSTLTIQRTQQEDSAVYLCASIRTGPFFSGNTIYFGEGSWLTVV
Turning to B1, the binding result was “recognises” in [1]; “no recognition” in assay [2]; “recognises” in assay [3]; “no recognition” in assay [4]; “no recognition” in [5]; “no recognition” in assay [6]. Moreover, the binding result is “no recognition” in assay [7]; “recognises” in [8]; “no recognition” in [9]; “no recognition” in assay [10]; “recognises” in assay [11]; “no recognition” in [12]. For the same molecule, the binding result in [13] is “no recognition”; in assay [14], “no recognition”; in assay [15], “recognises”; in [16] it was “recognises”; in assay [17], “no recognition”; in assay [18] it was “no recognition”. Further, the binding result in assay [19] is listed as “no recognition”; in assay [20] it was “no recognition”; in assay [21] it was “recognises”.

B2: R12C9 TCR (TCR, V domains shown)
Valpha: AQTVTQSQPEMSVQEAETVTLSCTYDTSESDYYLFWYKQPPSRQMILVIRQEAYKQQNATENRFSVNFQKAAKSFSLKISDSQLGDAAMYFCAYTVPSNAGGTSYGKLTFGQGTILTVHP
Vbeta: EPEVTQTPSHQVTQMGQEVILRCVPISNHLYFYWYRQILGQKVEFLVSFYNNEISEKSEIFDDQFSVERPDGSNFTLKIRSTKLEDSAMYFCASSERGQGYGYTFGSGTRLTVV
Consider B2, for which the figures for the binding result in [5], in assay [13] and in assay [22] were “no recognition”, “no recognition” and “recognises”, respectively.

Source of the values: patent publication US20150246959A1 (published 2015).
